Experimental data published in the supplement of paper PMC9170038.

tested on: K4 kissing-loop RNA reporter; experiment: apparent KD of K4 kissing-loop reporter; higher = weaker reporter binding; settings: Eterna round: R107; input ligand: tryptophan 2.4 mM
Procedure: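 RNA-MaP round R107: designed RNA switches with theophylline, tryptophan, arginine or FMN aptamers are transcribed on-chip within common flanks. They are titrated with a labelled K4 kissing-loop RNA reporter in RNA-MaP buffer (100 mM Tris pH 7.5, 80 mM KCl, 4 mM MgCl2), without ligand or with the indicated ligand. Median apparent KD per design.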
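Further: bound reporter read as fluorescence of individual clusters on recovered sequencing chips by microscopy, with normalized cluster intensities fitted with a binding model.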

Point of comparison: “GAUGAUCGCGCGGCCGCCACUGGUCAGUGAUGUUGACAUUAAGGCGCCGAGUAGUAACGGCGCCACAGGACCGGGCGCGAUGUAG [First Shot]”, “apparent KD of K4 kissing-loop reporter” value 176 nM. Against it:
- AUUAAUAUCACGGCCGCCACUGAAUAUUGUUUUUAUAUUUAGAAUAAUUGCCAGUGAUGUUGGAUCAGGACCGGGUGAUUUUAUA [JR_SSTryptoB_Sub008] — 2-fold higher, 360 nM
- AAAAUAAUCCAGUGAUGUUGGUAUCCAGAUACCAGCCACGAAAGUGGCCCUUGGCAGCUGUAGGACGUACAAAUAAGUACGUCCA [#OpenEnded 7 #StaticStem #K4Early] — 2.5-fold higher, 444 nM
- UGAUAGGACAGAAGGAGCGGCAGUGAUGUUGCCAAAAGGAUAAGGUGUCAAAAGACACCCUGCCAGGUAGGUCGCUGUCCUAUCU — within 1.5-fold, 208 nM
- CGAGUGAUGUUCGUUCGUUUAUUUGGGUGACAGGAUAUGCGGAAACGCAGAAGGGUCACCUUCGGGUUACCCGAAUUAACGUUAU [#09 K4 FMN A Exclusion] — 4.1-fold higher, 717 nM
- CUCGAGUGAUGUUCGAUUAUGUAUACAGAUACCAGUGAAUUUUAACACCCUUGGCAGCUGGUAGAAUCAUUUUAAUUUUAACUAG [JR_SSTheophyA_Sub021] — within 1.5-fold, 162 nM
- GGUAGCAUGGCGGCCGCCACUUCAAUUGGAGUGAUGUUCCAAGGCAUCGCGAAAGCGAUGCCAGGAAGGACCGGGCCAUGCUACC — 1.6-fold lower, 112 nM
- AAAAUAAAUCAGUGAUGUUGGUGUCCAGAUACCAGCGACGAAAGUCGCCCUUGGCAGCUGUGGACGUACAAAAUAAGUACGUCCU [MatMod 22 - Jieux - Same State - Theophylline A] — 2.6-fold higher, 465 nM
- GCGGGCGGCUGAAGGAGCGGGCGGGCCCGAGUGAUGUUCGGGUGGGCCGUGAGGCCCGGAGCCCAGGUAGGUCGCGGUUCCGUCC [#2 Same State - Arginine B Attempt #19 (HarryS)] — within 1.5-fold, 147 nM
- GGAUAGGAUAGAGGAUAUGGGUUAGGCAAGAAUAACUUGUCUUGUAAAUCCAUGAGGAGUGAUGUUCCAGAAGGCUGUCCUAUCG [MatMod 5 - Jieux - Exclusion - FMN B] — 1.9-fold lower, 93.6 nM
- AAAAUAAACCAGUGAUGUUGGUGUCUGGAUACCAGCGACGAAAGUCGCCCUUGGCAGCUACGGACGUACAAAAUAAGUACGUCCU [MatMod 8 - Jieux - Same State - Theophylline A] — 3.2-fold higher, 561 nM
- UGUCGAGUGAUGUUCGAUUUGGUGCAUGCAGAGGAUAUAGGGUGGGCUAGAAGGCUGAAAAGUGCUUCGAGUGAUGUUCGAAGUU [Exclusion FMN A GF10] — 1.8-fold lower, 97.3 nM
- GAGGUACAGGCGGCCGCCACUAGUGAUGUUAGUGAUAGAAGAUAUAGUAAAUAUCGGCAUUUAGAUAGGACCGGGCCUGGUGGUG [ffdfcmullin] — 1.6-fold higher, 275 nM
- AAGUGUGUGGCGGCCGCCACUAGUCUCCAGUGAUGUUGGAGAUAUCACGUAAGUGAUAUCCGACAUAGGACCGGGCCAUAUAGAA [Same State - Tryptophan B (Freestyle 21)] — 2.7-fold higher, 474 nM
- AGGUCCGAGCCUGUAAAGGCUCGGACCUGUUAGGAUAUGACGUUAUUCAGAAGGGAUGGGUGGAGUGAUGUUCCACCCGCAAGGG [#2 Same State - FMN A Attempt #5 (HarryS)] — 1.7-fold lower, 104 nM
- UAUGGUCCAUCAAGAGUAGUGAUGUUAUAACGAGGACCGGUACGGCCGCCACUCGAGGCCGUAAUACUCGAUCGGAUGCUGAGUG [theeternabot_exclusion_KL_Trp_A_28] — 4.6-fold higher, 816 nM
- CCAAUCUGUUACGAUACCAGUCAAAGAUAUUUGAUCAAUACCCUCACCGAGUGAUGUUCGGACCCUUGGCAGCGUCUGGGAUAGG [ceevmullin] — within 1.5-fold, 193 nM
- CUAUCCCGCCGUGUAUGUAGUAUACGGUGCCGAGGACCGGUACGGCCGCCACUCGAUAAGCUUUGUCGGAGUGAUGUUCCGACCG [Soleesen] — 1.5-fold higher, 265 nM
- UAAUUUAUGUCUUUAAUAUAAUAAUCAGAUACCAGUGAUUAAUGACACCCUUGGCAGCUGUAUAGAGUGAUGUUCUUAUGCUUAA [JR_ExcTheophyA_Sub010] — within 1.5-fold, 179 nM
- GGAGGGAUCUCGGCCGCCACUCAUAAGAAAUGAACCUAAGAAAUAUAGUGAUGUUAUAUAAAGAAGAGGACCGGGAGAAAGGAGG [ExTryptoB.A] — within 1.5-fold, 171 nM
- GGGAGUAGUGCGGCCGCCACUGUGAAAGAAGAAGAAUAUAGUGAUGUUAUAUAGGAAUUAAAGAAUAGGACCGGGCAUUAGAUUU [SSTRyptB.Q] — within 1.5-fold, 184 nM
- AACUCUCAGACACCUGAGUGAUGUUCAGGCCGAGGACCGGUACGGCCGCCACUCGGGUCUGAGAGAGGUUAUCAAAGAUAGCCAA [Omei KL Tryp A SS A v3] — 1.9-fold higher, 338 nM
- UGCAGUGAUGUUGCUAUUUUUCUUGAUUAACGAGGACCGGUACGGCCGCCACUCGAUUUCUCUCUAAUCCAGUAUGUUGUUUAGU [JR_ExcTryptoA_Sub001] — 1.9-fold lower, 90.4 nM
- UGAUAGGAGAGAAGGAGCGGGAGUGAUGUUCCCAAAGAUUGGUCUAGCAAAGCUGGACCCUCCCAGGUAGGUCGCUCUCCUAUCU [KL-XARG-B16] — 2-fold higher, 357 nM
- CGAGUGAUGUUCGAAGAGUUGUUAAGCGAUACCAGCUAGGAAACUGGCCCUUGGCAGCGUAAUAAGUUAAUAAAUAAAUGAUCAC [whbob_Ex_Theo_A_th64] — 1.7-fold higher, 301 nM
- UGCUUUAUCAGAAGGAGCGCGUUGGUCAUAAUAAUAAUCAGUGAUGUUGAUAUAUGAGGAUUGCAGGUAGGUCGCUGAUAUAGCU [KL-XARG-B1] — within 1.5-fold, 229 nM
- GUGUGUGUCGGAGGAUAUGCGGUGGGUGUGGGCGGAUUAGUGAUGUUGGUUGUGGUGGUGGUGGGUGUAGAAGGUUGGUGUGUGU [RHig 3/7 C] — 2.5-fold higher, 444 nM
